The text below walks through data of patent US20170119925.

This data set has as its system T1, Gln-Pro-Gln-Gly-Leu-Ala-Lys (QPQGLAK) peptide crosslinker.
T1 sequence: QPQGLAK

For the substance “general collagenase from Clostridium histolyticum”, the kcat/Km (s^-1M^-1), digestion kinetics by HPLC was determined as 32 s^-1M^-1.
